Source: patent US7910100B2, “Antibodies directed to the mammalian EAG1 ion channel protein” (Max-Planck-Gesellschaft zur Forderung der Wissen, priority 2004, dated 2011)

How the values were obtained:
IPC-298 melanoma cells [1] = assay: IPC-298 cell proliferation with secondary immunotoxin Mab-ZAP; assay type: cell-based, human; conditions: in combination with secondary immunotoxin Mab-ZAP (100 ng/well), 72 hours
Method: In order to evaluate the specific suitability and efficacy of anti-Eag1 monoclonal antibodies for conjugation as primary immunotoxin, in vitro cell proliferation assays were performed in the presence of anti-Eag1 antibody in conjunction with a secondary antibody conjugated to saporin, a ribosome-inactivating protein from the seeds of the plant Saponaria officinalis. The secondary immunotoxin binds to the anti-Eag1 antibody is internalized into the cell alongside the primary antibody. Once the immunotoxin is internalised, saporin breaks away from the targeting agent and inactivates the ribosomes, which causes protein inhibition and, ultimately, cell death.
For the assay (FIG. 8a) 3000 IPC-298 cells were seeded in 60 μl/well FCS-containing medium on 96-well plates overnight. 100 ng/well (1 ng/μl) Mab-ZAP was mixed with 10 ng/μl of mouse monoclonal anti-Eag1 antibodies ImAb1 or ImAb4 in 40 μl FCS-containing medium for 1 h at 37° C. and then directly added to the cells in quadruplicates. […] The quantity of formazan product was measured by the amount of 490 nm absorbance using an ELISA plate reader.
For the assay shown in FIG. 8b 3000 IPC-298 cells were seeded in 60 μl/well FCS-containing medium on 96-well plates overnight. […] Absorbance was measured using a spectrofluorometer at 590 nm every 30 min.

Eag2 = assay: BIAcore cross-reactivity with Eag family member Eag2; assay type: binding; conditions: 10 μg/ml antibody, flow rate 20 μl/min; chip coated with Eag2 equivalent regions
Method: In order to analyse cross-reactivity of anti-Eag1 antibodies of the invention with the most homologous Eag family member Eag2 a BIAcore™ binding analysis was performed. BIAcore chips were coated with Eag1 C-terminus (amino acids 694 to 962), the H5 region (amino acids 374 to 452) or Eag2 (the equivalent regions fused in a single construct). The interaction with anti-Eag1 antibodies ImAb1 and ImAb3 were analysed using 10 μg/ml antibody at a flow rate of 20 μl/min.

IPC-298 melanoma cells [2] = assay: IPC-298 cell proliferation assay (AlamarBlue); assay type: cell-based, human; conditions: 5 μg/ml antibody, 7 days, pre-incubation with 40 mM KCl
Method: In vitro experiments were conducted in order to determine the ability of the antibodies of the invention to inhibit cancer cell proliferation. 1000 IPC-298 cells were seeded in 60 μl/well 10% FCS-containing medium (DMEM […] glucose) on 96-well plates overnight. Cells were pre-incubated in quadruplicates with 5 μg/ml anti-Eag1 monoclonal antibodies, ImAb1 and ImAb3, diluted in FCS-containing medium with 40 mM KCl for 1 h at 37° C. in 5% CO2. Treatment of the cells with 40 mM KCl ensures an open conformation of the ion channel Eag1 and might accelerate binding of the monoclonal anti-EAG1 antibodies to its corresponding epitope. After 1 h incubation, supernatants were removed and replaced with 100 μl/well FCS-containing medium with 5 μg/ml anti-Eag1 antibodies, ImAb1 and ImAb3. Cells were then incubated at 37° C. in 5% CO2 for 7 days. In order to assess proliferation and cell viability 10 μl/well AlamarBlue™ (BIOSOURCE) was added and incubated at 37° C. in the dark. Absorbance was measured using a spectrofluorometer at 590 nm every 30 min.

Molecule	inhibition of cell proliferation (IPC-298 melanoma cells [1])	cross-reactivity with Eag2 (Eag2)	inhibition of cell proliferation (IPC-298 melanoma cells [2])
ImAb4: mouse monoclonal anti-Eag1 antibody, IgG2b kappa; light chain SEQ ID NO: 2, heavy chain SEQ ID NO: 4 (antibody, listed as Mus musculus) heavy: MRVLILLWLFTAFPGILSDVQLQESGPGLVKPSQSLSLTCTVTGYSITSDYAWNWIRQFPGNKLEWMGYISYSGSTIYNPSLKSRISITRDTSKNQFFLQLNSVTTEDTATYYCARFGNYGNTLNYWGQGTSVTVSSAKTTPPSVYPLAPGCGDTTGSSVTLGCLVKGYFPESVTVTWNSGSLSSSVHTFPALLQSGLYTMSSSVTVPSSTWPSQTVTCSVAHPASSTTVDKKLEPSGPISTINPCPPCKECHKCPAPNLEGGPSVFIFPPNIKDVLMISLTPKVTCVVVDVSEDDPDVQISWFVNNVEVHTAQTQTHREDYNSTIRVVSTLPIQHQDWMSGKEFKCKVNNKDLPSPIERTISKIKGLVRAPQVYILPPPAEQLSRKDVSLTCLVVGFNPGDISVEWTSNGHTEENYKDTAPVLDSDGSYFIYSKLNMKTSKWEKTDSFSCNVRHEGLKNYYLKKTISRSPGK light: MKLPVRLLVLMFWIPASSSDVVMTQTPLSLPVSLGDQASISCRSSQSLVHSNGNTYLHWYLQKPGQSPKLLIYKVSNRFSGVPDRFSGSGSGTDFTLKISRVEAEDLGVYFCSQSTHVPPTFGGGTKLEIKRADAAPTVSIFPPSSEQLTSGGASVVCFLNNFYPKDINVKWKIDGSERQNGVLNSWTDQDSKDSTYSMSSTLTLTKDEYERHNSYTCEATHKTSTSPIVKSFNRNEC	inhibition of IPC-298 melanoma cell proliferation		
ImAb1: mouse monoclonal anti-Eag1 antibody; VL SEQ ID NO: 43, VH SEQ ID NO: 44; binds C-terminus of Eag1 (antibody, listed as Mus musculus) heavy: MNFGFSLIFLVLVLKGVQCEVKLVESGGGLVKPGGSLKLSCAASGFTFSNYAMSWVRQTPEKRLEWVASISSDGDTYFPDNVKGRFTISRENAGNILFLQMSSLRSEDTAMYYCARGFMITFWGQGTLVTVSAAKTTPPSVYPLAPGCGDTTGSSVTLGCLVKGYFPESVTVTWNSGSLSSSVHTFPALLQSGLYTMSSSVTVPSSTWPSQTVTCSVAHPASSTTVD light: MDMRAPAQFFGILLLWFPGIRCDIKMTQSPSSMYASLGERVTITCKASQDIKSYLSWYQQKPWKSPKILIYYATSLADGVPSRISGSGSGQDYSLTISSLESDDTATYYCLQHGESPYTFGGGTKLEIKRADAAPTVSIFPPSSEQLTSGGASVVCFLNNFYPKDINVKWKIDGSERQNGVLNSWTDQDSKDSTYSMSSTLTLTKDEYERHNSYTCEATHKTSTSPIVKSFNRNEC		do not cross-react with Eag2	inhibit human cancer cell growth
